Consider two substances from article doi:10.1101/2020.11.23.395327.

Assay [1] concerns the target PII(WT)-His, signaling protein PII from Synechocystis sp. PCC 6803 (Synechocystis sp. PCC 6803) (UniProt Q55247). As to the kind of experiment: BLI. A general note: BLI is a label-free optical method that tracks binding on a fibre tip over time.
The target in assay [2] is PII(S49E), phosphomimetic variant (Synechocystis sp. PCC 6803) (UniProt Q55247). Put plainly: BLI.

Take tag-free PirA (natural protein): the binding signal, fold lower than that of GST-PirA in assay [1] was 6 fold.
In the case of “GST-PirA (GST-tagged PII-interacting regulator of arginine synthesis, Ssr0692) (natural protein)”, the dissociation constant Kd (as a rule, the constant that tells how readily two partners part at equilibrium) is 2500 nM in assay [2] and 2900 nM in assay [1].
